Assay results taken from US20190145962A1 (TAO HEALTH LIFE PHARMA, published 2019).
Each block holds one binder with its values, some of them ahead of it.

Columns and labels:
[1] = target: T1, synthetic amylospheroids (synthetic ASPD) (UniProt P05067 672-713); experiment: SPR, synthetic ASPD solid-phased on the chip, peptide as analyte
T1 construct: Spherical Abeta assembly of about 10 nm, made in vitro; In SPR it was solid-phased on the chip; In the imaging assay it was pre-incubated with peptide and added to neurons
Description: Synthetic ASPD were solid-phased on a chip and each peptide shown in Table 3 below was allowed to flow as an analyte. Then the dissociation constant (KD) was determined by surface plasmon resonance (SPR).
Two peptides (HNNW (SEQ ID NO: 27) and HPNW (SEQ ID NO: 28)) that could not inhibit the binding of ASPD to neurons in the evaluation performed in section 1 above were used as negative controls.

[2] = target: T1, synthetic amylospheroids (synthetic …); experiment: ASPD pre-incubated with peptide, imaging of ASPD bound to rat hippocampal neurons
Description: A liquid mixture of peptide and synthetic ASPD was incubated at 4° C. for 15 minutes to pretreat the ASPD and this liquid mixture was added to primary cultured rat hippocampal neurons cultured in a 96-well plate.
After incubation at 37° C. for 15 minutes in a CO₂ incubator, the wells were washed with PBS. Then, 2% paraformaldehyde (50 μl/well) was added thereto for immobilization performed for 20 minutes at 37° C. and further 4% paraformaldehyde (50 μl/well) was added thereto for immobilization performed for 20 minutes at 37° C. After washing and blocking, a primary antibody solution containing anti-ASPD antibody (mASD3) and anti-MAP2 antibody (trade name: sc-20172, manufactured by SANTACRUZ) was added, which then was left overnight. After washing, a secondary antibody solution containing Alexa Fluoro (trademark) 568 anti-mouse antibody (trade name: A11031, manufactured by life technologies), Alexa Fluoro (trademark) 488 anti-rabbit antibody (trade name: A11034, manufactured by life technologies), and DAPI (trade name: D523, manufactured by Dojindo) was added and then fluorescence microscopic observation was performed.
Subsequently, steps 4 to 5 were performed as follows: From the microscopic observation data, a calibration curve as shown in FIG. 2 was drawn, an approximate curve was created within a range where linearity was maintained, and then ED₅₀ was calculated. Using, as an indicator, “titer” that is defined by the ratio of ED₅₀ of the ASPD treated with peptide to ED₅₀ of the ASPD alone, the ASPD-binding inhibitory ability of peptide was evaluated.

T1 sequence (P05067 672-713): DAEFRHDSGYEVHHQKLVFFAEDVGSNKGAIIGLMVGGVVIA

B2: Peptide 13 (peptide)
peptide: HFGW
notes: also called HFGW
ASPD-binding inhibitory ability (titer = ED50[ASPD+Peptide]/ED50[ASPD]) [2]: 1.5

B3: Peptide 05 (peptide)
peptide: HHNW
notes: also called HHNW
ASPD-binding inhibitory ability (titer = ED50[ASPD+Peptide]/ED50[ASPD]) [2]: 1.5

B4: Peptide 02 (peptide)
peptide: HRNW
notes: also called HRNW
ASPD-binding inhibitory ability (titer = ED50[ASPD+Peptide]/ED50[ASPD]) [2]: 1.5

B5: Peptide 14 (peptide)
peptide: HFIW
notes: also called HFIW
ASPD-binding inhibitory ability (titer = ED50[ASPD+Peptide]/ED50[ASPD]) [2]: 1.5

B7: Peptide 17 (peptide)
peptide: HFMW
notes: also called HFMW
ASPD-binding inhibitory ability (titer = ED50[ASPD+Peptide]/ED50[ASPD]) [2]: 1.5

B9: Peptide 10 (peptide)
peptide: HANW
notes: also called HANW
ASPD-binding inhibitory ability (titer = ED50[ASPD+Peptide]/ED50[ASPD]) [2]: 1.5

B11: Peptide 03 (peptide)
peptide: HKNW
notes: also called HKNW
ASPD-binding inhibitory ability (titer = ED50[ASPD+Peptide]/ED50[ASPD]) [2]: 1.5

B12: Peptide 04 (peptide)
peptide: HDNW
notes: also called HDNW
ASPD-binding inhibitory ability (titer = ED50[ASPD+Peptide]/ED50[ASPD]) [2]: 1.5

B13: Peptide 09 (peptide)
peptide: HTNW
notes: also called HTNW
ASPD-binding inhibitory ability (titer = ED50[ASPD+Peptide]/ED50[ASPD]) [2]: 1.5

B14: Peptide 16 (peptide)
peptide: HFRW
notes: also called HFRW
ASPD-binding inhibitory ability (titer = ED50[ASPD+Peptide]/ED50[ASPD]) [2]: 1.5

B16: Peptide 06 (peptide)
peptide: HWNW
notes: also called HWNW
ASPD-binding inhibitory ability (titer = ED50[ASPD+Peptide]/ED50[ASPD]) [2]: 1.5

B17: Peptide 11 (peptide)
peptide: HVNW
notes: also called HVNW
ASPD-binding inhibitory ability (titer = ED50[ASPD+Peptide]/ED50[ASPD]) [2]: 1.5

B18: Peptide 07 (peptide)
peptide: HQNW
notes: also called HQNW
ASPD-binding inhibitory ability (titer = ED50[ASPD+Peptide]/ED50[ASPD]) [2]: 1.5

B19: Peptide 15 (peptide)
peptide: HFWW
notes: also called HFWW
ASPD-binding inhibitory ability (titer = ED50[ASPD+Peptide]/ED50[ASPD]) [2]: 1.5

B21: Peptide 18 (peptide)
peptide: HFDW
notes: also called HFDW
ASPD-binding inhibitory ability (titer = ED50[ASPD+Peptide]/ED50[ASPD]) [2]: 1.5

B23: Peptide 08 (peptide)
peptide: HYNW
notes: also called HYNW
ASPD-binding inhibitory ability (titer = ED50[ASPD+Peptide]/ED50[ASPD]) [2]: 1.5

B24: Peptide 12 (peptide)
peptide: HFLW
notes: also called HFLW
ASPD-binding inhibitory ability (titer = ED50[ASPD+Peptide]/ED50[ASPD]) [2]: 1.5

Now from value to binder:

binding result [1]: no binding
B1: HNNW (negative control peptide) (peptide)
peptide: HNNW

binding result [1]: no binding
B6: HPNW (negative control peptide) (peptide)
peptide: HPNW

ASPD-binding inhibitory ability (titer = ED50[ASPD+Peptide]/ED50[ASPD]) [2]: 1.5
B8: Peptide 19 (peptide)
peptide: HFEW
notes: also called HFEW

ASPD-binding inhibitory ability (titer = ED50[ASPD+Peptide]/ED50[ASPD]) [2]: 1.5
B10: Peptide 22 (peptide)
peptide: HFKW
notes: also called HFKW

ASPD-binding inhibitory ability (titer = ED50[ASPD+Peptide]/ED50[ASPD]) [2]: 1.5
B15: Peptide 21 (peptide)
peptide: HFVW
notes: also called HFVW

ASPD-binding inhibitory ability (titer = ED50[ASPD+Peptide]/ED50[ASPD]) [2]: 1.5
B20: Peptide 23 (peptide)
peptide: HFHW
notes: also called HFHW

ASPD-binding inhibitory ability (titer = ED50[ASPD+Peptide]/ED50[ASPD]) [2]: 1.5
B22: Peptide 24 (peptide)
peptide: HFYW
notes: also called HFYW

ASPD-binding inhibitory ability (titer = ED50[ASPD+Peptide]/ED50[ASPD]) [2]: 1.5
B25: Peptide 20 (peptide)
peptide: HFAW
notes: also called HFAW
